PMC9634608, “Multi-crystal native-SAD phasing at 5 keV with a helium environment” (IUCrJ, 2022)

Target: the molecule itself
Experiment: crystal structure; native-SAD at 5 keV with a helium path, 18 microcrystals, space group R3, 2.6 Å; crystals grown by sitting drop at 4°C in 0.1 M HEPES pH 7.8, 1 mM ZnSO4, 27–29% PEG 400, protein in β-OG

B1: TehA (natural protein)
chain: MNITKPFPLPTGYFGIPLGLAALSLAWFHLENLFPAARMVSDVLGIVASAVWILFILMYAYKLRYYFEEVRAEYHSPVRFSFIALIPITTMLVGDILYRWNPLIAEVLIWIGTIGQLLFSTLRVSELWQGGVFEQKSTHPSFYLPAVAANFTSASSLALLGYHDLGYLFFGAGMIAWIIFEPVLLQHLRISSLEPQFRATMGIVLAPAFVCVSAYLSINHGEVDTLAKILWGYGFLQLFFLLRLFPWIVEKGLNIGLWAFSFGLASMANSATAFYHGNVLQGVSIFAFVFSNVMIGLLVLMTIYKLTKGQFFLK
notes: TehA, a bacterial homolog of the plant nitrate/chloride channel SLAC1; construct as described by Chen et al. (2010); The printed length of 314 residues may differ from the length of the UniProt entry; also called membrane protein TehA; source: E. coli BL21(DE3) pLysS, purified (IMAC, size-exclusion chromatography); not shown: His tag, C-terminal, cleaved
  stoichiometry N: 3
